Common to all, as to assay: holdup assay
Common to all, as to parameters: key: below the threshold = too weak to quantify, mostly under pKd 3.1 to 4

Test [1] addresses T1, GRIP1_2, Q9Y3R0.
T1 sequence (Q9Y3R0 145-248, limits assumed, looked up): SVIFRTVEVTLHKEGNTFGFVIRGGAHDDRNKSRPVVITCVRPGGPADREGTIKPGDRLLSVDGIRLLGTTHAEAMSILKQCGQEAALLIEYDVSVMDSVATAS

Test [2] addresses T2, TJP3_3, O95049.
T2 sequence (O95049 375-456, limits assumed, looked up): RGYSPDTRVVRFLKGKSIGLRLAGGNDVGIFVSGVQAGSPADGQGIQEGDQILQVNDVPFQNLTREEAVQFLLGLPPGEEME

Test [3] has as its target TJP1_2, Q07157.
Test [4] addresses T3, GRIP1_5, Q9Y3R0.
T3 sequence (Q9Y3R0 568-668, limits assumed, looked up): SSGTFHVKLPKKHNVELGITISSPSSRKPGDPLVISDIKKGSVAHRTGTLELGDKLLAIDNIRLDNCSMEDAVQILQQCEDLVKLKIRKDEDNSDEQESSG

For test [5], the target named is T4, TX1BP3, O14907.
T4 sequence (O14907 10-122, limits assumed, looked up): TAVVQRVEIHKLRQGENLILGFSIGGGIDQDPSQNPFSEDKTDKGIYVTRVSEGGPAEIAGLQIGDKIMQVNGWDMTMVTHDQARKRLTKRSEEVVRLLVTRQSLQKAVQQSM

For test [6], the target named is T5, APBA1_1, Q02410.
T5 sequence (Q02410 651-752, limits assumed, looked up): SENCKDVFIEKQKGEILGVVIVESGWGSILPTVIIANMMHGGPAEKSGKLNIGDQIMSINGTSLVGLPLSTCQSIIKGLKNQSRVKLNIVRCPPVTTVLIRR

The target in test [7] is Inadl_4, Q8NI35.
The target in test [8] is T6, CARD11, Q9BXL7.
T6 sequence (Q9BXL7 662-765, limits assumed, looked up): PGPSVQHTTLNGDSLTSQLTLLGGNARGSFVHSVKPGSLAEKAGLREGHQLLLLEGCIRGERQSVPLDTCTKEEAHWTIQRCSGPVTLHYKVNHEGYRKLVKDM

Test [9] concerns the target GRIP2_3, Q9C0E4.
Test [10] deals with GRIP2_5, Q9C0E4.
In test [11] the target is AHNAK1, Q09666.
The target of test [12] is T7, LNX2_2, Q8N448.
T7 sequence (Q8N448 334-432, limits assumed, looked up): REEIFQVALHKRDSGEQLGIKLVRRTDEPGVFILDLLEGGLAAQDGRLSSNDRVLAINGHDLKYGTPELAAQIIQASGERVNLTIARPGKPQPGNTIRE

In test [13] the target is HTRA2, O43464.
Test [14] addresses T8, SIPA1L2, Q9P2F8.
T8 sequence (Q9P2F8 945-1036, limits assumed, looked up): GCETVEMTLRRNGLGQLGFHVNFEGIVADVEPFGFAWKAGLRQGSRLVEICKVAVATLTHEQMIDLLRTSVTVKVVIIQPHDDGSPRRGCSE

The target in test [15] is GORASP2, Q9H8Y8.
Test [16] addresses DLG2_3, Q15700.
Test [17] addresses T9, MPP6, Q9NZW5.
T9 sequence (Q9NZW5 125-219, limits assumed, looked up): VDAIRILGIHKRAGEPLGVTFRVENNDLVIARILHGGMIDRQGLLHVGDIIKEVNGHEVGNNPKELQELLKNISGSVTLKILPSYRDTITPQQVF

Test [18] concerns the target T10, DFNB31_2, Q9P202.
T10 sequence (Q9P202 274-371, limits assumed, looked up): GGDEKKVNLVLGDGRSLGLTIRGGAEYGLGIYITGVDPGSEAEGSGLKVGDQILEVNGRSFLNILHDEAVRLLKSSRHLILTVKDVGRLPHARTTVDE

For test [19], the target named is T11, MPDZ_10, O75970.
T11 sequence (O75970 1624-1722, limits assumed, looked up): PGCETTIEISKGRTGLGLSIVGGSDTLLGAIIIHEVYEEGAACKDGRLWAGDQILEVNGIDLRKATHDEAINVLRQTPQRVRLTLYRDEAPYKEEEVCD

For test [20], the target named is T12, PTPN13_1, Q12923.
T12 sequence (Q12923 1088-1188, limits assumed, looked up): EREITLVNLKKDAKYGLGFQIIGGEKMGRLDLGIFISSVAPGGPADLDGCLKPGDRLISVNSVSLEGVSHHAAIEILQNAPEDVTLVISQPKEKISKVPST

The target in test [21] is T13, SNTA1, Q13424.
T13 sequence (Q13424 82-180, limits assumed, looked up): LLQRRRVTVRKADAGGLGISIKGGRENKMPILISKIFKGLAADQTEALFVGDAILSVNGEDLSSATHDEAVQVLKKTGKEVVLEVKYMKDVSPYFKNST

Test [22] has as its target T14, GRIP1_3, Q9Y3R0.
T14 sequence (Q9Y3R0 247-346, limits assumed, looked up): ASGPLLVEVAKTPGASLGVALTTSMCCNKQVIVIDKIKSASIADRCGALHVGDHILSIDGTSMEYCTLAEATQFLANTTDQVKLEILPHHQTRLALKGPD

The mark [23] stands for this setting: plain residues with an end cap or a label only (N-terminal biotin on a linker: ttds).
[24] abbreviates: plain residues with an end cap or a label only (N-terminal biotin on a linker: ahx).

Chain of AHNAK1, Q09666 (Q09666 4-100): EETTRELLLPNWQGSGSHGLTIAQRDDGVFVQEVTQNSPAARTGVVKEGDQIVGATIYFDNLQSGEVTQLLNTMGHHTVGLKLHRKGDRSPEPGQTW
Chain of HTRA2, O43464 (O43464 355-458): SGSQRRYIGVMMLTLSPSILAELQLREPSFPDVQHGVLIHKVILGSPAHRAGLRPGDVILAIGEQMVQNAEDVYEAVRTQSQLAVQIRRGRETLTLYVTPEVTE
Chain of Inadl_4, Q8NI35 (Q8NI35 547-651): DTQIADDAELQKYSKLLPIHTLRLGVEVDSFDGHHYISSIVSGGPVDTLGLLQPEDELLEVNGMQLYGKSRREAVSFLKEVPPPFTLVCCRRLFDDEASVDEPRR
Chain of TJP1_2, Q07157 (Q07157 181-274): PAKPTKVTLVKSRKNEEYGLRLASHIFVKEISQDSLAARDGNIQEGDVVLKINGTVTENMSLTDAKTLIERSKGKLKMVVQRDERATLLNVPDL
Chain of GRIP2_5, Q9C0E4 (Q9C0E4 544-642): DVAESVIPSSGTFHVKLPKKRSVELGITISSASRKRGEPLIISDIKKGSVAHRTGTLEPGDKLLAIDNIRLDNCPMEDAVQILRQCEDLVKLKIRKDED
Chain of GRIP2_3, Q9C0E4 (Q9C0E4 238-339): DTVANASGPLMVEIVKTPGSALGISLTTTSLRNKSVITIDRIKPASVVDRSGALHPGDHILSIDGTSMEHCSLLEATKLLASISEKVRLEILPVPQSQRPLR

B1: CFTR, P13569 (peptide)
chain: TEEEVQDTRL
As usually defined, the pKd is −log10 of the Kd, conventionally taken in molar units. For the molecule B1, the pKd entry in test [1] (setting [23]), in [2] (setting [23]), in test [3] (setting [23]), in test [4] (setting [23]), in [5] (setting [23]) and in test [6] (setting [23]) was “below the threshold” in each case. For the same molecule, the pKd entry in test [7] (setting [23]), in [8] (setting [23]), in test [9] (setting [23]), in test [10] (setting [23]), in test [11] (setting [23]) and in [12] (setting [23]) was “below the threshold” in each case. Moreover, the pKd entry in test [13] (setting [23]), in test [14] (setting [23]), in test [15] (setting [23]), in [16] (setting [23]), in [17] (setting [23]) and in [18] (setting [23]) was “below the threshold” each time. Besides, the pKd entry was “below the threshold” in [19] (setting [23]), “below the threshold” in [20] (setting [23]), 3.79 in [21] (setting [23]) and “below the threshold” in [22] (setting [23]).

B2: MAS1, P04201 (peptide)
chain: CNTVTVETVV
Turning to B2, the pKd was 3.61 in test [1] (setting [23]); 3.7 in test [2] (setting [23]); “below the threshold” in test [3] (setting [23]); 3.55 in test [4] (setting [23]); “below the threshold” in test [5] (setting [23]); “below the threshold” in test [6] (setting [23]). The pKd entry in [7] (setting [23]) is “below the threshold”; in test [8] (setting [23]), “below the threshold”; in [9] (setting [23]) it was “below the threshold”; in test [10] (setting [23]), “below the threshold”; in test [11] (setting [23]) it was “below the threshold”; in [12] (setting [23]), 4.13. The pKd entry in test [13] (setting [23]) is “below the threshold”; in test [14] (setting [23]), “below the threshold”; in [15] (setting [23]) it was “below the threshold”; in test [16] (setting [23]) it was “below the threshold”; in [17] (setting [23]), 3.54; in test [18] (setting [23]), “below the threshold”. For the same molecule, the pKd is 3.51 in test [19] (setting [23]), 3.57 in test [20] (setting [23]), 4.34 in [21] (setting [23]) and “below the threshold” in [22] (setting [23]).

B3: RPS6KA1, Q15418 (peptide)
chain: RRVRKLPSTTL
In the case of B3, the pKd entry in test [1] (setting [23]) was “below the threshold”; in test [2] (setting [23]) it was 3.59; in [3] (setting [23]), 3.51; in [4] (setting [23]) it was 3.52; in test [5] (setting [23]), “below the threshold”; in test [6] (setting [23]), “below the threshold”. For the same molecule, the pKd result in [7] (setting [23]) is “below the threshold”; in [8] (setting [23]), “below the threshold”; in test [9] (setting [23]), “below the threshold”; in test [10] (setting [23]), “below the threshold”; in test [11] (setting [23]), “below the threshold”; in [12] (setting [23]), 3.6. Besides, the pKd result in test [13] (setting [23]) is “below the threshold”; in test [14] (setting [23]) it was “below the threshold”; in test [15] (setting [23]), 3.59; in test [16] (setting [23]), 3.49; in [17] (setting [23]), 3.73; in test [18] (setting [23]), “below the threshold”. In addition, the pKd is 3.76 in [19] (setting [23]), “below the threshold” in test [20] (setting [23]), 3.87 in test [21] (setting [23]) and “below the threshold” in [22] (setting [23]).

B4: MAP2K2, P36507 (peptide)
chain: QPGTPTRTAV
Turning to B4, the pKd entry in [1] (setting [23]) is “below the threshold”; in test [2] (setting [23]) it was 3.57; in [3] (setting [23]), “below the threshold”; in [4] (setting [23]), “below the threshold”; in [5] (setting [23]), 3.97; in test [6] (setting [23]), “below the threshold”. Further, the pKd result in [7] (setting [23]), in [8] (setting [23]), in [9] (setting [23]), in test [10] (setting [23]), in test [11] (setting [23]) and in test [12] (setting [23]) was “below the threshold” each time. Further, the pKd result in test [13] (setting [23]) was “below the threshold”; in test [14] (setting [23]) it was “below the threshold”; in test [15] (setting [23]), “below the threshold”; in [16] (setting [23]), 3.91; in [17] (setting [23]), 3.52; in [18] (setting [23]), “below the threshold”. The pKd is 3.59 in test [19] (setting [23]), 3.66 in test [20] (setting [23]), “below the threshold” in test [21] (setting [23]) and “below the threshold” in test [22] (setting [23]).

B5: PDLIM7, Q9NR12;Q9NR12-1 (peptide)
chain: LCKSHAFSHV
With B5, the pKd entry in [1] (setting [24]) was “below the threshold”; in test [2] (setting [24]) it was “below the threshold”; in [3] (setting [24]), “below the threshold”; in test [4] (setting [24]), “below the threshold”; in [5] (setting [24]), 3.95; in test [6] (setting [24]) it was “below the threshold”. Besides, the pKd result in test [7] (setting [24]), in [8] (setting [24]), in [9] (setting [24]), in test [10] (setting [24]), in test [11] (setting [24]) and in [12] (setting [24]) was “below the threshold” each time. Further, the pKd entry in test [13] (setting [24]), in test [14] (setting [24]), in test [15] (setting [24]), in test [16] (setting [24]), in [17] (setting [24]) and in [18] (setting [24]) was “below the threshold” throughout. Further, the pKd in test [19] (setting [24]) was 4.07; in test [20] (setting [24]) it was “below the threshold”; in test [21] (setting [24]), “below the threshold”; in test [22] (setting [24]), “below the threshold”.

Values taken from paper PMC9482650, “Quantitative fragmentomics allow affinity mapping of interactomes” (Nature Communications, 2022).
